In the test the target is SARS-CoV-2 RBD WT (for SPR binding assays) (SARS-CoV-2) (UniProt P0DTC2).

Our source for the IC50, neutralisation of authentic SARS-CoV-2 (SARS-CoV-2-Nluc) on Vero E6 cells and IC90, neutralisation of authentic SARS-CoV-2 (SARS-CoV-2-Nluc) on Vero E6 cells values is PMC9282883.

As to S309 IgG1 (antibody), the IC50, neutralisation of authentic SARS-CoV-2 (SARS-CoV-2-Nluc) on Vero E6 cells amounted to 0.0789 µg/mL and the IC90, neutralisation of authentic SARS-CoV-2 (SARS-CoV-2-Nluc) on Vero E6 cells was 0.3 µg/mL.
